Four molecules from patent US7125979 can be followed below.

Common to all, as to assay: cell-based or functional assay
For one experiment, the target named is NPY Y2 receptor (mouse) (UniProt P97295).
The target of the next experiment is MC3-R (mouse) (UniProt P33033).
Experiment [1] deals with µ-opioid receptor (mouse) (UniProt P42866).

Non-standard residues stand in square brackets, D forms with d. No end group written: not given here.

Sequence of MC3-R (mouse) (P33033 whole entry): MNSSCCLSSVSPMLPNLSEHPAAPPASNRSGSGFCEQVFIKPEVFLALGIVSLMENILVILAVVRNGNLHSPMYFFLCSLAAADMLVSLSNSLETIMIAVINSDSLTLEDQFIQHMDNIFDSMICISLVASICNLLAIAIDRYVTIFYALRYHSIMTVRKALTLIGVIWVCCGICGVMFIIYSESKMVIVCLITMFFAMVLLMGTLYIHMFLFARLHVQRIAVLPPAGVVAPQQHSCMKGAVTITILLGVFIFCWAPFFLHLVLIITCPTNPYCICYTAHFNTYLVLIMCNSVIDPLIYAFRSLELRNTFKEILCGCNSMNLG
Sequence of NPY Y2 receptor (mouse) (P97295 whole entry): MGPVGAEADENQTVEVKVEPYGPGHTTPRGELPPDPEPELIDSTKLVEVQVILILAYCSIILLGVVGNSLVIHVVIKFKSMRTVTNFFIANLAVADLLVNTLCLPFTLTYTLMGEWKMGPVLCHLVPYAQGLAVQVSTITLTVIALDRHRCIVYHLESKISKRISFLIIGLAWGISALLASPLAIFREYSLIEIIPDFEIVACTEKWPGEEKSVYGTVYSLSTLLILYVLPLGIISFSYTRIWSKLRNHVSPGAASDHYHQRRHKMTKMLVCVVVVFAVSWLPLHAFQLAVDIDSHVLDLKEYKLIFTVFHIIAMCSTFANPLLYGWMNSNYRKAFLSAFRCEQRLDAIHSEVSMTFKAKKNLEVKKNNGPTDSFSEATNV
Sequence of µ-opioid receptor (mouse) (P42866 whole entry): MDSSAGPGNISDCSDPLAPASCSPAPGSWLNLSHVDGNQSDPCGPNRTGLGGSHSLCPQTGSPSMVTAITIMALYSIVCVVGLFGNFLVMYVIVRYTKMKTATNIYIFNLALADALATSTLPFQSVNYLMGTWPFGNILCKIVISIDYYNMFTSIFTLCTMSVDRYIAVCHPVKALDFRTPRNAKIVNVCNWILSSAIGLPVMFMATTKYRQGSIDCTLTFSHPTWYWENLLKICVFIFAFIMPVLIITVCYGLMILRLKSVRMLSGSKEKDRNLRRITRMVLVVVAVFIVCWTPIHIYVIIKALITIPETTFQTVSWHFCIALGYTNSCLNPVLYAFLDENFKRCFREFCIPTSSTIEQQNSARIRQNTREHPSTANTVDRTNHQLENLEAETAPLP

“N-acetyl (Leu^28, Leu^31) NPY (24-36) (from UniProt P01303 52-64) (peptide)” returned a reduction of the frequency of inhibitory postsynaptic currents (IPSCs) onto POMC neurons with NPY Y2 receptor (mouse) of 44.4%.
For the molecule “neuropeptide Y (from UniProt P01303 29-64)”, the decrease of the frequency of GABAergic IPSCs in POMC cells (100 nM NPY) with NPY Y2 receptor (mouse) was determined as 55%.
Take YVMGHFR[dW]DRFG (peptide, UniProt P01189 77-88, looked up, ends and bridges not checked) [D-Trp^8-γMSH]: in the experiment with MC3-R (mouse), the frequency of GABAergic IPSCs recorded from POMC neurons (7 nM) is 280% and the hyperpolarization of POMC neurons (7 nM) was -5.5 mV.
For YGGFM (peptide, UniProt P01210 100-104, looked up) [met-enkephalin], in experiment [1], the hyperpolarization of the membrane potential of POMC cells (whole cell recording, 30 µM Met-Enk) fell in the range of 10 to 20 mV.
